The IC50 is the concentration that inhibits the measured activity by half.

In the first test the target is HLA-A*0201 (human). The experiment in a line: competition with 125I-labelled standard peptide for purified HLA, gel filtration.
Settings: not given
As for NVIGTLRGAV (modifications not checked) [PSM 357 …], the binding affinity ratio (IC50 of standard peptide / IC50 of test peptide) was 0.0001. As for PIPVHTVPL (modifications not checked) [PAP 140 …], the binding affinity ratio (IC50 of standard peptide / IC50 of test peptide) was determined as 0.0002. The same measure, in the same setting: the figure for PLERFAELV (modifications not checked) [PAP 352 …] is 0.0001. Same read-out and setting: the result for PADYFAPGV (modifications not checked) [PSM 231 …] reads 0.0001. Take YIRKRYRKFL (modifications not checked) [PAP 84 peptide …]: the binding affinity ratio (IC50 of the standard peptide / IC50 of the test peptide) turned out to be 0.0002. Turning to PAELTDAVKV (modifications not checked) [PSA 125 …], the binding affinity ratio (IC50 of standard peptide / IC50 of test peptide) is 0.0002. In the case of YARTEDFFKL (modifications not checked) [PSM 179 peptide …], the binding affinity ratio (IC50 of the standard peptide / IC50 of the test peptide) came out at 0.0002. In the case of PLMYSLVHNL (modifications not checked) [PSM 468 …], the binding affinity ratio (IC50 of standard peptide / IC50 of test peptide) was 0.0008.

With PIGYYDAQKL (modifications not checked) [PSM 296 …], the binding affinity ratio (IC50 of standard peptide / IC50 of test peptide) amounted to 0.0001.

Take PIDTFPTDPI (modifications not checked) [PAP 49 …]: the binding affinity ratio (IC50 of standard peptide / IC50 of test peptide) was 0.0002. The same measure, in the same setting: the result for PLILSRIV (modifications not checked) [PSA 15 PLILSRIV] reads 0.0001.

Staying with this test, now noted: remark: other sources report otherwise.
DLMLLRLSEPV (modifications not checked) [peptide 1419.13 (PSA.116.V11 / HuK2.120.V11)]: the IC50 is 50 nM.

The same test, now with this note: remark: other sources report otherwise; scale: ratio.
Take KVTEFMLCAGL (modifications not checked) [… (Kallikrein, position 191, 11 amino acids)]: the binding affinity ratio stood at 0.001.

Still in this test, the particulars now being: scale: ratio.
Consider KVVHYRKWI (modifications not checked) [… (PSA, position 241, 9 amino acids)], for which the binding affinity ratio came to 0.0001.

For LAKELKFVTL (modifications not checked) [… (PAP, position 31, 10 amino acids)], the binding affinity ratio came to 0.0002. On the same count and under the same terms, the figure for KVVHYRKWI (modifications not checked) [… (Kallikrein, position 245, 9 amino acids)] is 0.0001; for LLRLSEPA (modifications not checked) [LLRLSEPA (PSA, position 119, 8 amino acids)] it is 0.0001; for LLRLSEPAEL (modifications not checked) [… (PSA, position 119, 10 amino acids)] it is 0.0001. Regarding LLEKMGGSA (modifications not checked) [… (PSM, position 305, 9 amino acids)], the binding affinity ratio is 0.0001. On the same count and under the same terms, the result for LLHETDSAVA (modifications not checked) [… (PSM, position 4, 10 amino acids)] reads 0.0006; that for LLRLSEPA (modifications not checked) [LLRLSEPA (Kallikrein, position 123, 8 amino acids)], 0.0001; that for LAGTEQNFQL (modifications not checked) [… (PSM, position 83, 10 amino acids)], 0.0001. Same read-out and setting: the figure for LARAASLSL (modifications not checked) [… (PAP, position 8, 9 amino acids)] is 0.0002; for LAGAKGVIL (modifications not checked) [… (PSM, position 219, 9 amino acids)] it is 0.0002; for KVTKFMLCA (modifications not checked) [… (PSA, position 187, 9 amino acids)] it is 0.002.

These data come from patent publication US20070020327A1.
